The values below come from patent US20140186352A1 (DEVELOPMENT CENTER FOR BIOTECHNOLOGY, published 2014).

Substitutions are numbered along the chain they refer to.

B1: 34.22Chi (antibody, V domains shown)
VH: QVQLQQSGAELVRPGVSVKISCKGSGYTFTDYSIHWVKQSHAKSLEWIGVISSYYGDARHNQKFKGKATMTVDKSSSTAYMELARLTSEDSAIYYCARDGYYGYAMDYWGQGTSVTVSS
VL: DVVMTQTPLSLPVSLGDQASISCRSTQSLVHSNGNTYLHWYLQKPGQSPKLLIYKVSYRFSGVPDRFSGSGSGTDFTLKISRVEAEDLGVYFCSQSTHVPFTFGSGTKLEIKR
notes: also called chimeric antibody of the variable region of M34.22 fused with the constant region of human IgG1
B2: GP42-10 (antibody, V domains shown)
VH: QVKLQQSGPDLVKPGSLVKISCKASGYTFSNYDINWVKQRPGQGLEWIGWIDPGNGRTKYNEKFEDKATLTADKSSSTAYMQLSSLTSEDSAVYFCARVGDDYDGDFDYWGQGTTVTVSS
VL: DIELTQSPTIMSASPGEKVTMTCRASESVDSYGNSFMHWYQQKPGLPPKLLIYRASNLESGIPARFSGSGSRTDFTLTINPVEADDVATYYCQQSNEYPYTFGGGTKLEIKR
notes: Phage display clone
B3: GP31-52 (antibody, V domains shown)
VH: B2 VH with K3Q, S16A, T28S, S30T, E65T, D66G, T69S, Q82V, D90N, D106G
VL: DIELTQSPSIMAASLGQKVTMTCSASSSVSSSYLHWYQQKSGASPKPLIHRTSNLASGVPARFSGSGSGNSYSLTISSMEAEDVATYYCFQGSGYPYTFGGGTKLEIKR
notes: Phage display clone
B4: GP42-58 (antibody, V domains shown)
VH: B2 VH with S16A, S30T, N31S, N55D, D66G, T69S, Q82L, E89D, D90N, D106G
VL: B2 VL with T9A, M21I, T22S, R24S, H38N, L46Q, A64V, S69G
notes: Phage display clone
B5: GP42-09 (antibody, V domains shown)
VH: QVKLQQSGAELVRPGALVKLSCKASGFNIKDYYMHWVKQRPEQGLEWIGWIDPENGNTIYDPKFQGKASITADTSSNTAYLQLSSLTSEDSAVYFCARVGDDYDGDFDYWGQGTTVTVSS
VL: DIELTQSPASLAVSLGQRATISCRASESVDSYGDSFMHWYQQKPGQPPKLLIYRASNLESGIPARFSGSGSRTDFTLTINPVEADDVATYYCQQSYEDPYTFGGGTKLEIKR
notes: Phage display clone
B6: 16.7Chi (antibody, V domains shown)
VH: EVLLQQSGPELVKPGASVKISCKASGYTFTDYNMDWVKQSHGKSLEWIGDINPNVGDTIYNQKFKGKATLTVDKSSSTAYMELRSLTSEDSAVYYCVRSDDDYSWFAHWGQGTLVTVSA
VL: SIVMTQTPKFLLVSAGDRVTITCKASQSVSNDVAWYQQKSGQSPKLLIYYASNRYTGVPDRFTGSGYGTDFTFTISTVQAELAVYFCQQDSSSPLTFGAGTKLELKR
notes: also called chimeric antibody of the variable region of M16.7 fused with the constant region of human IgG1
B7: 106.17Chi (antibody, V domains shown)
VH: B6 VH with S21P, V55N, K63N, G66D, D73N, S91T, D102N, A107T, H108Y
VL: B6 VL
notes: also called chimeric antibody of the variable region of M106.17 fused with the constant region of human IgG1
B8: GP42-27 (antibody, V domains shown)
VH: QVKLQESGAELVRPGTSVKISCKASGYTFTNYDINWVKQRPGQGLEWIGWIDPGDGRTKYNENFKDKASLTADKSSSTAYMQLSSLTSEDSAVYYCARVGDDYDGGFDYWGQGTTVTVSS
VL: B5 VL with D34N, K49R, R54A, L58Q, I110L
notes: Phage display clone
B9: BGF33-19 (antibody, V domains shown)
VH: QVQLQQSGAELVRPGTSVKVSCKASGYAFTNYLIEWVKQRPGQGLEWIGVINPGSGGTNYNEKFKGKATLTADKSSSTAYMQLSSLTSDDSAVYFCAREGEKHSYYFDYWGQGTTLTVSS
VL: B5 VL with E3V, R54L, I62V, N80D, V87A, S95N, Y96N, Y100P
notes: Phage display clone
B10: BGF2A2-92 (antibody, V domains shown)
VH: EVQLVESGGGLVQPGGSLKLSCAASGFTFSDYYMYWVRQTPEKRLEWVATISDGGDYTYYPDSVKGRFTISRDNAKNNLYLQMSSLKSEDTAMYYCAREGDYYGPFAYWGQGTTLTVSS
VL: DIVMTQSQKFMSTSVGDRVSITCKASQNVGTAVAWYQQKPGQSPKALIYSASYRYSGVPDRFTGSGSGTDFTLTISNVQSEDLAEYFCQQYNSYPYTFGGGTKLEIKR
notes: Phage display clone

In the first experiment the target is T1, denatured granulysin (10His tag, expressed in 293T cells, run on denaturing SDS-PAGE) (UniProt P22749 23-145, limits assumed).
T1 construct: Same protein as native granulysin but denatured; probed on a blot with the test antibodies and anti-human-HRP; not shown: 10His tag
T1 sequence (looked up): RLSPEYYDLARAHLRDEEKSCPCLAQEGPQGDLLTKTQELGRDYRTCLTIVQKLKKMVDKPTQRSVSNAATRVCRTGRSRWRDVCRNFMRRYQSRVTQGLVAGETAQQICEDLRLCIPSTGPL
Kind of experiment: blot of denaturing SDS-PAGE probed with the antibody, anti-human-HRP.
Consider B1, for which the binding result is reported as “no binding”. Still for that read-out and setting: as for B2, the entry is “no binding”; as for B3, “no binding”; as for B4, “no binding”. Same read-out and setting: as for B5, the entry is “no binding”; as for B6, “no binding”. The same measure, in the same setting: in the case of B7 it was “no binding”. As to B8, the binding result was “no binding”.

For a further experiment, the target named is T2, granulysin mutant RRRR97/100/104/108AAAA (Homo sapiens (Human), UniProt P22749 23-145, limits assumed).
T2 construct: Expressed in 293T cells, culture supernatant used; not shown: His tag
T2 chain: T1 sequence (looked up) with R75A, R78A, R82A, R86A
Kind of experiment: ELISA, antibody coated, His-tagged mutant granulysin detected with anti-His-HRP.
B9: the binding result is on record as “no binding”. Same read-out and setting: in the case of B10 it was “no binding”.

Another experiment has as its target T3, granulysin mutant RRRRR94/97/100/102/104AAAAA (Homo sapiens (Human), UniProt P22749 23-145, limits assumed).
T3 construct: not shown: His tag
T3 chain: T1 sequence (looked up) with R72A, R75A, R78A, R80A, R82A
Described as above.
Consider B9, for which the binding result is recorded as “no binding”.
